Read-outs that look alike come from different tables or passages of the source. One block for each substance: values may come before it.
Key:
PP1 (Homo sapiens) [1] = biological target: PP1 (Homo sapiens) (UniProt P62136); details: cited from earlier work
PP1 (Homo sapiens) [2] = biological target: PP1 (Homo sapiens) (UniProt P62136); details: cited from earlier work; remark: listed apart in the source
[3] = biological target: Recombinant purified α-isoform of mammalian PP1 (residues 1–330), tag cleaved (mammalian) (UniProt P62136); assay: SPR; Biacore 3000; PP1 covalently coupled to a CM5 chip; Rif1 CRI, mutants and peptide injected at 20 µl/min in 10 mM Tris-HCl pH 7.5, 250 mM NaCl, 1 mM DTT, 2 mM MnCl2, 0.005% Tween 20; 1:1 binding model
Chain of Recombinant purified α-isoform of mammalian PP1 (residues 1–330), tag cleaved (mammalian) (P62136 whole entry, the tested form may be a part, canonical isoform): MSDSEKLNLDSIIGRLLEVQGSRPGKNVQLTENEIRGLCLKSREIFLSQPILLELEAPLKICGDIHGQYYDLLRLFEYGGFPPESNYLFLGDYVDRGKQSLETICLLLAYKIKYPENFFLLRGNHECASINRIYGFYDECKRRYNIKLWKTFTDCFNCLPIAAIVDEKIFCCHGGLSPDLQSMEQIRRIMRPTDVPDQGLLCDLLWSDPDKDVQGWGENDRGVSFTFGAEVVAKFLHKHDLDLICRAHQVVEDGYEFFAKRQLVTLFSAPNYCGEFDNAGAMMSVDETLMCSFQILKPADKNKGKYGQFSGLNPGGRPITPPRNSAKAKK

PP1 (Homo sapiens) [4] = biological target: PP1 (Homo sapiens) (UniProt P62136); details: cited from earlier work; remark: listed apart in the source
PP1 (Homo sapiens) [5] = biological target: PP1 (Homo sapiens) (UniProt P62136); details: cited from earlier work; remark: listed apart in the source

Chain of PP1 (Homo sapiens) (P62136 2-330): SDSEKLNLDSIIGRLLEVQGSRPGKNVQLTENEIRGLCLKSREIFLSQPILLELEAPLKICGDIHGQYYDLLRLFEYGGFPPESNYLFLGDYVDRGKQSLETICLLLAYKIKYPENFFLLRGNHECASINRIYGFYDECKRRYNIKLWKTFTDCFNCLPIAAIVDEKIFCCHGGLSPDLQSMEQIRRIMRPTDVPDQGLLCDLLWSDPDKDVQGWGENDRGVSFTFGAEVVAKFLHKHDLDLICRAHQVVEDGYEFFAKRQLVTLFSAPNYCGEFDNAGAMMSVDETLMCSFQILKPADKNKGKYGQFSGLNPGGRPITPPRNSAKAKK
Chain of NIPP1 (Q12972 whole entry): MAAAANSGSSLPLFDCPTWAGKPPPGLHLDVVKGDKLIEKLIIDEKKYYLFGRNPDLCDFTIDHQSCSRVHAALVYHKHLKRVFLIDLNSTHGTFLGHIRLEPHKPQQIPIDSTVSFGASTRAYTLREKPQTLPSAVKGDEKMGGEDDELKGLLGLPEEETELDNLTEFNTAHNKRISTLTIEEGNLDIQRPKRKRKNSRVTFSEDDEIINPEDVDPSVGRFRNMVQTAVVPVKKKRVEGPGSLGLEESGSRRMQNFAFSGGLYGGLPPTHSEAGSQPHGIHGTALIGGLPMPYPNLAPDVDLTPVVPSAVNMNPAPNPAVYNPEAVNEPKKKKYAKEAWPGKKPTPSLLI
Chain of GADD34 (O75807 whole entry): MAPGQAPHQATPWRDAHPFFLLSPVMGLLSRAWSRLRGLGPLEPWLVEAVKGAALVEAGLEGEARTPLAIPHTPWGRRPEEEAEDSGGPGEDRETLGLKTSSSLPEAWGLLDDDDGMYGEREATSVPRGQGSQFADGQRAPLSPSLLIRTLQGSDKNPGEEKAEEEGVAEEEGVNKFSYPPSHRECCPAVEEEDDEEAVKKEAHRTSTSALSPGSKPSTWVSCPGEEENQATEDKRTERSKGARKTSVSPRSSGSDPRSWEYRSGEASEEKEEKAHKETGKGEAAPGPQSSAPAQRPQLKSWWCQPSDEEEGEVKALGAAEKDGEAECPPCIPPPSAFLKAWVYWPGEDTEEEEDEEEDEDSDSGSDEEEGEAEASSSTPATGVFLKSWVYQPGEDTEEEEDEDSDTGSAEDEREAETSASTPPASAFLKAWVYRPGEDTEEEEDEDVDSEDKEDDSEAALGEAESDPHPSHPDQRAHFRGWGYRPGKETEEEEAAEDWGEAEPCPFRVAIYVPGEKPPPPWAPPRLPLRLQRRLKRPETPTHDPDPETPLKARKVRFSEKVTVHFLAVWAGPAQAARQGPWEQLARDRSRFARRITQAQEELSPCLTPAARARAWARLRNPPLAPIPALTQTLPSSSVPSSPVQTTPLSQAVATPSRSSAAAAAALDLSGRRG
Chain of spinophilin (O35274 417-494): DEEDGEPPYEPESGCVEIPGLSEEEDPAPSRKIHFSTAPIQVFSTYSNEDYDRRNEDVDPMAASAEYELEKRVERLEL
Chain of PNUTS (Q96QC0 whole entry): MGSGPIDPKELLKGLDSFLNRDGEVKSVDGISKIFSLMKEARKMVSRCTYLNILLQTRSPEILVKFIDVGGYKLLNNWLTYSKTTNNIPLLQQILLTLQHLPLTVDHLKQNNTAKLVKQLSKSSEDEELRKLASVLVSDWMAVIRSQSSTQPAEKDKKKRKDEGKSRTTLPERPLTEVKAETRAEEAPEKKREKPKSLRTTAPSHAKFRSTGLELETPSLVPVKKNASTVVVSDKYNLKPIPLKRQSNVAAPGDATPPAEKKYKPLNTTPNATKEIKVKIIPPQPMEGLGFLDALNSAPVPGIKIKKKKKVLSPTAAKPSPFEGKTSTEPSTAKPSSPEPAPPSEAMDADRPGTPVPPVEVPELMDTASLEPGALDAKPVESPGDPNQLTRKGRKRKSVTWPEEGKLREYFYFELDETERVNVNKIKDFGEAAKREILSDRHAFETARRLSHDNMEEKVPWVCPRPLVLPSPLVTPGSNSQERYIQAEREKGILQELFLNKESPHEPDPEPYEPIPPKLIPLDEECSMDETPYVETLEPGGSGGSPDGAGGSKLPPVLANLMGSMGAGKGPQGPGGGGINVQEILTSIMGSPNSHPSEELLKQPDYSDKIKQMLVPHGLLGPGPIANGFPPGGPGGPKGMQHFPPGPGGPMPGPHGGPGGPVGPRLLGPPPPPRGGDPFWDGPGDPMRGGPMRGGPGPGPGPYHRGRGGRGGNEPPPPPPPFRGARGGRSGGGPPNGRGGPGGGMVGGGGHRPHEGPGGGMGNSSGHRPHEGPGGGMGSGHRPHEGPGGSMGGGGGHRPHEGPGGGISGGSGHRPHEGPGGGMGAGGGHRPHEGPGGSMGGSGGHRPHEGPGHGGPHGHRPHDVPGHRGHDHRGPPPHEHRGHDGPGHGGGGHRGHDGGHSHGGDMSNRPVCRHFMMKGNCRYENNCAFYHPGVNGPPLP

Substance: NIPP1 (from UniProt Q12972)
Kd (PP1 (Homo sapiens) [1]): 73 nM

Substance: spinophilin (from UniProt O35274)
Kd (PP1 (Homo sapiens) [2]): 9.3 nM

affinity as percent of the wild-type interaction [3]: < 0.1%
Substance: Rif1 CRI (2093–2190) RVSF to RVSA (from UniProt Q6PR54 2093-2190) (domain or fragment)

Substance: PNUTS (from UniProt Q96QC0)
Kd (PP1 (Homo sapiens) [4]): 8.7 nM

fold decrease in affinity against wild type [3]: 20 fold
Substance: Rif1 CRI (2093–2190) SILK to SAAA (from UniProt Q6PR54 2093-2190) (domain or fragment)

fold decrease in affinity against wild type [3]: 20 fold
Substance: Rif1 CRI (2093–2190) RVSF to RASF (from UniProt Q6PR54 2093-2190) (domain or fragment)

Substance: GADD34 (from UniProt O75807)
Kd (PP1 (Homo sapiens) [5]): 62 nM

From article PMC5437018
